B1: Structural maintenance of chromosomes protein 1A (Homo sapiens), Q14683 (parent)
chain: MGFLKLIEIENFKSYKGRQIIGPFQRFTAIIGPNGSGKSNLMDAISFVLGEKTSNLRVKTLRDLIHGAPVGKPAANRAFVSMVYSEEGAEDRTFARVIVGGSSEYKINNKVVQLHEYSEELEKLGILIKARNFLVFQGAVESIAMKNPKERTALFEEISRSGELAQEYDKRKKEMVKAEEDTQFNYHRKKNIAAERKEAKQEKEEADRYQRLKDEVVRAQVQLQLFKLYHNEVEIEKLNKELASKNKEIEKDKKRMDKVEDELKEKKKELGKMMREQQQIEKEIKEKDSELNQKRPQYIKAKENTSHKIKKLEAAKKSLQNAQKHYKKRKGDMDELEKEMLSVEKARQEFEERMEEESQSQGRDLTLEENQVKKYHRLKEEASKRAATLAQELEKFNRDQKADQDRLDLEERKKVETEAKIKQKLREIEENQKRIEKLEEYITTSKQSLEEQKKLEGELTEEVEMAKRRIDEINKELNQVMEQLGDARIDRQESSRQQRKAEIMESIKRLYPGSVYGRLIDLCQPTQKKYQIAVTKVLGKNMDAIIVDSEKTGRDCIQYIKEQRGEPETFLPLDYLEVKPTDEKLRELKGAKLVIDVIRYEPPHIKKALQYACGNALVCDNVEDARRIAFGGHQRHKTVALDGTLFQKSGVISGGASDLKAKARRWDEKAVDKLKEKKERLTEELKEQMKAKRKEAELRQVQSQAHGLQMRLKYSQSDLEQTKTRHLALNLQEKSKLESELANFGPRINDIKRIIQSREREMKDLKEKMNQVEDEVFEEFCREIGVRNIREFEEEKVKRQNEIAKKRLEFENQKTRLGIQLDFEKNQLKEDQDKVHMWEQTVKKDENEIEKLKKEEQRHMKIIDETMAQLQDLKNQHLAKKSEVNDKNHEMEEIRKKLGGANKEMTHLQKEVTAIETKLEQKRSDRHNLLQACKMQDIKLPLSKGTMDDISQEEGSSQGEDSVSGSQRISSIYAREALIEIDYGDLCEDLKDAQAEEEIKQEMNTLQQKLNEQQSVLQRIAAPNMKAMEKLESVRDKFQETSDEFEAARKRAKKAKQAFEQIKKERFDRFNACFESVATNIDEIYKALSRNSSAQAFLGPENPEEPYLDGINYNCVAPGKRFRPMDNLSGGEKTVAALALLFAIHSYKPAPFFVLDEIDAALDNTNIGKVANYIKEQSTCNFQAIVISLKEEFYTKAESLIGVYPEQGDCVISKVLTFDLTKYPDANPNPNEQ
partner: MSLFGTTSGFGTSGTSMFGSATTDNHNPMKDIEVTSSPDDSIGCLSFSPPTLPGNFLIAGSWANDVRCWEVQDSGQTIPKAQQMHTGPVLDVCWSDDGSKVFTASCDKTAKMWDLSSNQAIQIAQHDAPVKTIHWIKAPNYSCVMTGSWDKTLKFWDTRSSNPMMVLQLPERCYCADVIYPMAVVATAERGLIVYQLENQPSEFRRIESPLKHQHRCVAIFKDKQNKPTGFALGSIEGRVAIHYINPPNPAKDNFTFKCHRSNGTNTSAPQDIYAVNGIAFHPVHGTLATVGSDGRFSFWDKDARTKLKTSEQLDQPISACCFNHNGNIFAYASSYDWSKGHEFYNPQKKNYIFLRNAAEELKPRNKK

Variants of: B1
Settings: with rae1l_human RAE1, P78406
With S957A the “effect of a mutation on the interaction” value was “decreasing interaction”. In the case of S966A, the “effect of a mutation on the interaction” value is reported as “decreasing interaction”.
